Test results from publication PMC4931634.

Assays:
[1] = biological target: HIV-1 subtype C 1086.C gp120 (reference standard lot) (HIV-1 group M subtype C, strain 1086.C); assay: non-reduced SDS-PAGE; purified gp120 reference material; the dimer band disappeared completely upon reduced SDS-PAGE
[2] = biological target: HIV-1 subtype C TV1.C gp120 (reference standard lot) (HIV-1 group M subtype C, strain TV1.C); assay: as above

Substance | stoichiometry N [1] | stoichiometry N [2]
HIV-1 subtype C 1086.C gp120 (reference standard lot) (natural protein) | 2 | –
HIV-1 subtype C TV1.C gp120 (reference standard lot) (natural protein) | – | 2
